Source: patent US20220175921A1 (published 2022)
Each block holds one binder with its values, some of them ahead of it.

Columns and labels:
[1] = molecular target: T1, cynomolgus GITR, membrane bound (on activated cynomolgus T cells); assay: FACS
T1 chain: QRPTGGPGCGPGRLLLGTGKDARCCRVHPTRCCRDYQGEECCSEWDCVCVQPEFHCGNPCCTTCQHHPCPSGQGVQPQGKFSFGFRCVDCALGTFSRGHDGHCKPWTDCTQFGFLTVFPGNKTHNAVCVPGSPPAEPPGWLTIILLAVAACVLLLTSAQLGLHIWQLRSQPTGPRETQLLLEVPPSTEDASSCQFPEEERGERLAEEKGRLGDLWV

[2] = molecular target: T2, human GITR, membrane bound (on activated human T cells or on 3A9-hGITR cells) (UniProt Q9Y5U5 26-241); assay: FACS
T2 chain: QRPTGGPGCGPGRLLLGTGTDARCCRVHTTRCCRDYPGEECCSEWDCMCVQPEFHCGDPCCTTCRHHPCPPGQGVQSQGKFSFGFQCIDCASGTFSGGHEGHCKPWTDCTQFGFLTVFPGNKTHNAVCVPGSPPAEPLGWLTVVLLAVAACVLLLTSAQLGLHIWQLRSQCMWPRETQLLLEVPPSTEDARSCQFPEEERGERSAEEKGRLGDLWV

EC50 [1]: 142 nM
B1: 3C3 (antibody, V domains shown)
VH: QVQLQQWGAGLLKPSETLSLTCAVYGGSFSGYYWTWIRQPPGKGLEWIGKINHSGNTNYNPSLKSRVTISVDTSKNQFSLKLSSVTAADTAVYYCARLGAFDAFDIWGQGTMVTVSS
VL: DIQMTQSPSSLSASVGDRVTITCRASQGISSWLAWYQQKPEKAPKSLIYAASSLQSGVPSRFSGSGSGTDFTLTISSLQPEDFATYYCQQYNSYPYTFGQGTKLEIKR

EC50 [2]: 0.277 nM
B2: anti-GITR.g2 (antibody)
chain 1: QVQLVESGGGVVQPGRSLRLSCAASGFTFSSYGMHWVRQAPGKGLEWVAVIWYEGSNKYYADSVKGRFTISRDNSKNTLYLQMNSLRAEDTAVYYCARGGSMVRGDYYYGMDVWGQGTTVTVSSASTKGPSVFPLAPCSRSTSESTAALGCLVKDYFPEPVTVSWNSGALTSGVHTFPAVLQSSGLYSLSSVVTVPSSNFGTQTYTCNVDHKPSNTKVDKTVERKCCVECPPCPAPPVAGPSVFLFPPKPKDTLMISRTPEVTCVVVDVSHEDPEVQFNWYVDGVEVHNAKTKPREEQFNSTFRVVSVLTVVHQDWLNGKEYKCKVSNKGLPAPIEKTISKTKGQPREPQVYTLPPSREEMTKNQVSLTCLVKGFYPSDIAVEWESNGQPENNYKTTPPMLDSDGSFFLYSKLTVDKSRWQQGNVFSCSVMHEALHNHYTQKSLSLSPGK
chain 2: not shown

EC50 [2]: 0.163 nM
B3: anti-GITR.g2.g1.1f (antibody)
chain 1: QVQLVESGGGVVQPGRSLRLSCAASGFTFSSYGMHWVRQAPGKGLEWVAVIWYEGSNKYYADSVKGRFTISRDNSKNTLYLQMNSLRAEDTAVYYCARGGSMVRGDYYYGMDVWGQGTTVTVSSASTKGPSVFPLAPCSRSTSESTAALGCLVKDYFPEPVTVSWNSGALTSGVHTFPAVLQSSGLYSLSSVVTVPSSNFGTQTYTCNVDHKPSNTKVDKTVERKCCVECPPCPAPPVAGPSVFLFPPKPKDTLMISRTPEVTCVVVDVSHEDPEVKFNWYVDGVEVHNAKTKPREEQYNSTYRVVSVLTVLHQDWLNGKEYKCKVSNKALPSSIEKTISKAKGQPREPQVYTLPPSREEMTKNQVSLTCLVKGFYPSDIAVEWESNGQPENNYKTTPPVLDSDGSFFLYSKLTVDKSRWQQGNVFSCSVMHEALHNHYTQKSLSLSPG
chain 2: not shown
